Laboratory results as given in the RNAGym collection of RNA variant scans (doi:10.1073/pnas.2313332121).

B1: TPR t1 (parent)
chain: GACCAAUCUGCCCUCAGAGCUCGAGAACAUCUUCGGAUGCAGAGGAGGCAGGCUUCGGUGGCGCGAUAGCGCCAACGUCCUCAACCUCCAAUGCAUCCCACCACAUGAUGAUGCCUGAAGAGCCUUGGUUUUUUG

Variants of: B1
Assay: polymerase ribozyme fitness, log enrichment relative to wild type (log ratio); higher = more active; in vitro selection for triplet polymerase activity
Procedure, shortened: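 Genotype fitness is the logarithm of its enrichment divided by wild-type enrichment, using inverse-variance-weighted averages of replicates. That logarithm is base 2. Enrichment was measured by Illumina sequencing of input and output libraries from one triplicate in vitro selection round, with frozen incubation at −7 °C, on PCR-built, transcribed mutant libraries of each subunit of a heterodimeric triplet polymerase ribozyme, retaining genotypes with ≥10 input reads and ≥1 read per output.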

Compared with C11U A50G, C12A G69C C85A G113U G127A U130C is lower in “polymerase ribozyme fitness (log ratio)” value: -0.405 for the first, -7.98 for the second.

Compared with C31U A37G C115A, C101U U116C A119G U129A is higher in “polymerase ribozyme fitness (log ratio)” value: -4.73 for the first, 1.01 for the second.

Compared with G45A C53U, U9G G36A C101G A121U is higher in “polymerase ribozyme fitness (log ratio)” value: -1.11 for the first, -0.24 for the second.

Compared with A6G C13U C22U G44C, A5U U7A C15A G44A C56A G60A is higher in “polymerase ribozyme fitness (log ratio)” value: -5.6 for the first, -3.35 for the second.

First: G47A A121U
Second: C8U C22G U55C C73A C98A A111G U112A
The “polymerase ribozyme fitness (log ratio)” value of the first is higher: 1.38 for the first, -6.04 for the second.

Compared with C85G A118U U126G, G19C A84G is higher in “polymerase ribozyme fitness (log ratio)” value: -3.39 for the first, -3.14 for the second.

First: A26U U54C
Second: G44A C56U C72U G120C U129C
The “polymerase ribozyme fitness (log ratio)” value of the first is lower: -2.99 for the first, -2.55 for the second.

Going from C49G G57A U109A to C72A C82G C115A C123A, the “polymerase ribozyme fitness (log ratio)” value rises from -6.29 to -1.36.

First: G60A C89U
Second: C12G U33G C70U U87G A118U U125A
The “polymerase ribozyme fitness (log ratio)” value of the first is higher: -0.18 for the first, -5.53 for the second.

First: G44U C94A
Second: G61U C82G A91C U112C
The “polymerase ribozyme fitness (log ratio)” value of the first is lower: -2.53 for the first, 0.876 for the second.

First: A6G C49U G60C G135U
Second: C88G
The “polymerase ribozyme fitness (log ratio)” value of the first is lower: -2.21 for the first, -0.581 for the second.

First: C12A G52A A91G
Second: G51U C72A U106A
The “polymerase ribozyme fitness (log ratio)” value of the first is higher: -1.2 for the first, -3.24 for the second.

Compared with U14C G48U U54A, U87A C89U C123A C124G is higher in “polymerase ribozyme fitness (log ratio)” value: -2.87 for the first, 1.56 for the second.

Compared with A18U C40G, G69U C72U G117A is higher in “polymerase ribozyme fitness (log ratio)” value: -4.04 for the first, -0.708 for the second.

Going from G61U A100C to G10U C22G A46G C76A A118U, the “polymerase ribozyme fitness (log ratio)” value falls from -0.248 to -4.37.

First: U21C A74U G120A
Second: C4G C64U U106C C115G
The “polymerase ribozyme fitness (log ratio)” value of the first is higher: -0.17 for the first, -5.73 for the second.

First: C4A C70G G113A U116A
Second: C8G A91U
The “polymerase ribozyme fitness (log ratio)” value of the first is lower: -6.73 for the first, -1.17 for the second.

First: G48A U59A
Second: G61U A118G
The “polymerase ribozyme fitness (log ratio)” value of the first is lower: -0.703 for the first, 0.1 for the second.

Going from U9A C34A G51A C70U A121C to A37G G52A, the “polymerase ribozyme fitness (log ratio)” value rises from -6.25 to -1.1.

First: C8A U9G
Second: A95U A119U U125A G127U
The “polymerase ribozyme fitness (log ratio)” value of the first is higher: -0.0103 for the first, -2.7 for the second.

First: C56G C101U G120A
Second: C79A A91C
The “polymerase ribozyme fitness (log ratio)” value of the first is higher: -0.227 for the first, -3.69 for the second.

U109C U132A and A26C U112C are within 0.2 log units of each other in “polymerase ribozyme fitness (log ratio)” value: -4.52 for the first, -4.51 for the second.

First: A24G A119G A121U
Second: U96A G113U
The “polymerase ribozyme fitness (log ratio)” value of the first is higher: 1.12 for the first, -3.61 for the second.

Going from C12A C20U G47U to C8A C11A C82A G93A, the “polymerase ribozyme fitness (log ratio)” value rises from -4.43 to -0.542.

First: C12U A18G C20U C94U G117U
Second: G71U C99U U129A
The “polymerase ribozyme fitness (log ratio)” value of the first is higher: 0.203 for the first, -5.39 for the second.

First: A5C C115U G120A G122A U134G
Second: G48C G110A
The “polymerase ribozyme fitness (log ratio)” value of the first is lower: -4.36 for the first, -1.41 for the second.

Compared with U9A A26G C101G C104A G122A, A66C C70A is lower in “polymerase ribozyme fitness (log ratio)” value: -3.48 for the first, -3.75 for the second.

Compared with C4G G61U G93A, A41G A118G G120U U130A is higher in “polymerase ribozyme fitness (log ratio)” value: -2.57 for the first, -1.43 for the second.

Going from G69U C114A A121G U130G to A5U G69C, the “polymerase ribozyme fitness (log ratio)” value falls from 0.399 to -2.22.

Going from U59G A83C C97U to C56A U132A, the “polymerase ribozyme fitness (log ratio)” value rises from -0.481 to 0.197.

First: C20U G113A
Second: A2U C99U
The “polymerase ribozyme fitness (log ratio)” value of the first is higher: 1.4 for the first, -5.84 for the second.

Going from C22G C28U A37U G48A G71A G110C to A6U C15A G113A, the “polymerase ribozyme fitness (log ratio)” value rises from -5.6 to -4.98.

Going from U7G C72U G93C C115U to U9A C15A G45C A108G, the “polymerase ribozyme fitness (log ratio)” value falls from 0.15 to -4.55.

Compared with C13U U78C C115U, C49A G69A G77A G122A is lower in “polymerase ribozyme fitness (log ratio)” value: 1.27 for the first, -4.61 for the second.

First: A6U C49G C62A U78C C88A A119U
Second: C40U G61U C97A
The “polymerase ribozyme fitness (log ratio)” value of the first is higher: -3.67 for the first, -5.61 for the second.

First: A37U
Second: G39U G127C
The “polymerase ribozyme fitness (log ratio)” value of the first is higher: -0.355 for the first, -1.28 for the second.

Going from U7A C8A C11U C34U G48U C53A C72A to G48C C101A G117A, the “polymerase ribozyme fitness (log ratio)” value rises from -5.13 to -2.54.

Going from C4A C15U G61A U87A to G45A C70A C115A, the “polymerase ribozyme fitness (log ratio)” value rises from -2.75 to -0.928.

Compared with G51U C64A G69C, U78C C97A is lower in “polymerase ribozyme fitness (log ratio)” value: -3.5 for the first, -4.81 for the second.

Going from A29U C53U C56U G69U G93C to A6C U7G C22G G58U A95G C104A G120C, the “polymerase ribozyme fitness (log ratio)” value rises from -3.98 to -3.33.

First: C40G U59A
Second: G117A G128C
The “polymerase ribozyme fitness (log ratio)” value of the first is higher: -1.68 for the first, -3.45 for the second.

Going from U59A U87G to C15U C88U A118G, the “polymerase ribozyme fitness (log ratio)” value falls from -0.319 to -1.82.
